For experiment [1], the target named is Staphylococcus aureus protein A (SpA) in the cell wall of SA bacteria (strain ATCC #25923 and clinical isolate 00X) (Staphylococcus aureus). Briefly: flow cytometry: SA strain ATCC #25923 incubated with biotinylated MABp1 (negative control), then streptavidin-APC; mean fluorescence FL4-H from the table beside the histogram (bottom panel). Background: In flow cytometry, cells or beads pass a laser one at a time.

For experiment [2] the target is unchanged. Briefly: flow cytometry: SA clinical isolate 00X incubated with biotinylated MABp1 (negative control), then streptavidin-APC; mean fluorescence FL4-H from the table beside the histogram (top panel).
For experiment [3] the target is unchanged. Description: flow cytometry: SA clinical isolate 00X pre-incubated with human sera for 15 minutes, then biotinylated MABp1-IgG3 (isotype-matched negative control), then streptavidin-APC (top panel).
Experiment [4] shares this target. Briefly: flow cytometry: SA strain ATCC #25923 by the legend (printed on the sheet as 25935) pre-incubated with human sera for 15 minutes, then biotinylated MABp1-IgG3 (isotype-matched negative control), then streptavidin-APC (bottom panel).

For the substance MABp1-IgG1 (antibody), the Mean:FL4-H stood at 46.7 in experiment [1] and 29.8 in experiment [2].

Consider MABp1-IgG3 (antibody), for which the values for the Mean:FL4-H in experiment [3] and in experiment [4] were 19.1 and 10.3, respectively.

For the origin of these results see US20150344548A1.
